We go through 1 substance from article PMC9918737.

In assay [1] the target is ubH2B mono-nucleosome (H2B mono-ubiquitinated at lysine 120) (UniProt P0C0S8). Briefly: single-molecule magnetic tweezers (force-jump); 409-bp nucleosome tethered between coverslip and bead, 83 nM FACT in the flow cell, force jumps between 0.1 pN and 11 pN (H2B-nucleosome) or 6 pN (ubH2B-nucleosome), Kd from the ratio of free to FACT-bound states, 25 °C.
Assay [2] concerns the target unmodified H2B mono-nucleosome (UniProt P0C0S8).
Assay [3] has as its target ubH2B mono-nucleosome (H2B mono-ubiquitinated at lysine 120) (UniProt P0C0S8).

On to “recombinant FACT complex (Flag-SPT16 and His6-SSRP1) (from UniProt Q9Y5B9 1-1047; Q08945 1-709)”, for which the Kd in assay [1] was found to be 8 nM. For the same substance, the tension at which the H2B-nucleosome is completely disrupted in the presence of FACT (magnetic tweezers, repeated stretching) in assay [2] is less than 10 pN. Further, in assay [3], the rupture force of the inner DNA wrap of ubH2B-nucleosome in the presence of FACT (magnetic tweezers) was 20 pN and the rupture force of the outer DNA wrap of ubH2B-nucleosome in the presence of FACT (magnetic tweezers) worked out at 10 pN.
